Test results from patent US20230002480A1.

How the values were obtained:
Test in all cases: cell-based or functional assay
[1] = target: HIV-1 Env of pseudovirus C1080.c03 (clade CRF01_AE) (HIV-1)
[2] = target: HIV-1 Env of pseudovirus BJOX010000.06.2 (clade CRF01_AE (T/F)) (HIV-1)
[3] = target: HIV-1 Env of pseudovirus X1193_c1 (clade G) (HIV-1)
[4] = target: HIV-1 Env of pseudovirus T255-34 (clade CRF02_AG) (HIV-1)
[5] = target: HIV-1 Env of pseudovirus THRO4156.18 (clade B) (HIV-1)
[6] = target: HIV-1 Env of pseudovirus CNE21 (clade BC) (HIV-1)
[7] = target: HIV-1 Env of pseudovirus Ce1086_B2 (clade C (T/F)) (HIV-1)
[8] = target: HIV-1 Env of pseudovirus 1394C9G1(Rev-) (clade C (T/F)) (HIV-1)
[9] = target: HIV-1 Env of pseudovirus ZM233M.PB6 (clade C) (HIV-1)
[10] = target: HIV-1 Env of pseudovirus 7030102001E5(Rev-) (clade C (T/F)) (HIV-1)
[11] = target: HIV-1 Env of pseudovirus Ce704809221_1B3 (clade C (T/F)) (HIV-1)
[12] = target: HIV-1 Env of pseudovirus CNE17 (clade BC) (HIV-1)
[13] = target: HIV-1 Env of pseudovirus Ce1172_H1 (clade C (T/F)) (HIV-1)
[14] = target: HIV-1 Env of pseudovirus BF1266.431a (clade C (T/F)) (HIV-1)
[15] = target: HIV-1 Env of pseudovirus Q769.d22 (clade A) (HIV-1)
[16] = target: HIV-1 Env of pseudovirus Q259.d2.17 (clade A) (HIV-1)
[17] = target: HIV-1 Env of pseudovirus WITO4160.33 (clade B) (HIV-1)
[18] = target: HIV-1 Env of pseudovirus CNE58 (clade BC) (HIV-1)

PG16 (antibody)
IC50, titer in TZM.bl cells [1]: 0.001 µg/mL | IC80, titer in TZM.bl cells [1]: 0.003 µg/mL | IC50, titer in TZM.bl cells [2]: 1.2 µg/mL | IC80, titer in TZM.bl cells [2]: > 50 µg/mL | IC50, titer in TZM.bl cells [3]: 0.018 µg/mL | IC80, titer in TZM.bl cells [3]: 0.11 µg/mL | IC50, titer in TZM.bl cells [4]: 0.024 µg/mL | IC80, titer in TZM.bl cells [4]: 0.125 µg/mL

10E8 (antibody)
IC50, titer in TZM.bl cells [1]: 0.061 µg/mL | IC80, titer in TZM.bl cells [1]: 0.731 µg/mL | IC50, titer in TZM.bl cells [2]: 0.341 µg/mL | IC80, titer in TZM.bl cells [2]: 5.29 µg/mL | IC50, titer in TZM.bl cells [3]: 0.497 µg/mL | IC80, titer in TZM.bl cells [3]: 4.2 µg/mL | IC50, titer in TZM.bl cells [4]: 0.778 µg/mL | IC80, titer in TZM.bl cells [4]: 4.21 µg/mL

N49P11 (antibody)
IC50 [5]: 1.84 µg/mL | IC80 [5]: 10.4 µg/mL | MPI [5]: 100 | IC50 [6]: 7.4 µg/mL | IC80 [6]: 21.9 µg/mL | MPI [6]: 100 | IC50 [7]: 2.19 µg/mL | IC80 [7]: 11.7 µg/mL | MPI [7]: 100 | IC50 [8]: 6.13 µg/mL | IC80 [8]: 22.3 µg/mL | MPI [8]: 100 | IC50 [9]: 5.92 µg/mL | IC80 [9]: 18.5 µg/mL | MPI [9]: 100 | IC50 [10]: 0.635 µg/mL | IC80 [10]: 2.29 µg/mL | MPI [10]: 100 | IC50 [11]: 0.644 µg/mL | IC80 [11]: 3.3 µg/mL | MPI [11]: 100 | IC50 [12]: 6.68 µg/mL | IC80 [12]: 25.6 µg/mL | MPI [12]: 100 | IC50 [13]: 3.55 µg/mL | IC80 [13]: 19.2 µg/mL | MPI [13]: 100 | IC50 [14]: 0.998 µg/mL | IC80 [14]: 7.13 µg/mL | MPI [14]: 100 | IC50 [15]: 0.048 µg/mL | IC80 [15]: 0.308 µg/mL | MPI [15]: 100 | IC50 [16]: 8.42 µg/mL | IC80 [16]: 21.4 µg/mL | MPI [16]: 100 | IC50 [17]: 4.86 µg/mL | IC80 [17]: 13.2 µg/mL | MPI [17]: 100 | IC50 [18]: 0.038 µg/mL | IC80 [18]: 0.135 µg/mL | MPI [18]: 100

10-1074 (antibody)
IC50, titer in TZM.bl cells [1]: > 50 µg/mL | IC80, titer in TZM.bl cells [1]: > 50 µg/mL | IC50, titer in TZM.bl cells [2]: > 50 µg/mL | IC80, titer in TZM.bl cells [2]: > 50 µg/mL | IC50, titer in TZM.bl cells [3]: 0.083 µg/mL | IC80, titer in TZM.bl cells [3]: 0.475 µg/mL | IC50, titer in TZM.bl cells [4]: > 50 µg/mL | IC80, titer in TZM.bl cells [4]: > 50 µg/mL

PG9 (antibody)
IC50, titer in TZM.bl cells [1]: 0.004 µg/mL | IC80, titer in TZM.bl cells [1]: 0.013 µg/mL | IC50, titer in TZM.bl cells [2]: 0.154 µg/mL | IC80, titer in TZM.bl cells [2]: 0.74 µg/mL | IC50, titer in TZM.bl cells [3]: 0.105 µg/mL | IC80, titer in TZM.bl cells [3]: 0.304 µg/mL | IC50, titer in TZM.bl cells [4]: 0.023 µg/mL | IC80, titer in TZM.bl cells [4]: 0.134 µg/mL
